Results published in patent US20240124560A1.

Legend:
Assay in all cases: cell-based or functional assay
[1] = target: HIV-1 Env of NIH-009_1006.11.C3.1601 (HIV-1)
[2] = target: HIV-1 Env of NIH-060_Q769ENVd22 (HIV-1)
[3] = target: HIV-1 Env of pseudovirus NIH-052_CNE30 (HIV-1)
[4] = target: HIV-1 Env of NIH-048_CNE19 (HIV-1)
[5] = target: HIV-1 Env of NIH-107_T251.18 (HIV-1)
[6] = target: HIV-1 Env of pseudovirus NIH-024_ZM53M.PB12 (HIV-1)
[7] = target: HIV-1 Env of isolate NIH-089_3016.v5.c45 (HIV-1)
[8] = target: HIV-1 Env of pseudovirus NIH-012_1012.11.TC21.3257 (HIV-1)
[9] = target: HIV-1 Env of isolate NIH-088_X1632 S2 B10 (HIV-1)
[10] = target: HIV-1 Env of pseudovirus NIH-018_Du172.17 (HIV-1)
[11] = target: HIV-1 Env of NIH-058_Q23ENV17 (HIV-1)
[12] = target: HIV-1 Env of NIH-025_ZM109F.PB4 (HIV-1)
[13] = target: HIV-1 Env of NIH-023_ZM249M.PL1 (HIV-1)
[14] = target: HIV-1 Env of pseudovirus NIH-099_3301.v1.c24 (HIV-1)
[15] = target: HIV-1 Env of pseudovirus NIH-002_QHO692 .42 (HIV-1)
[16] = target: HIV-1 Env of NIH-002_QHO692 .42 (HIV-1)
[17] = target: HIV-1 Env of NIH-012_1012.11.TC21.3257 (HIV-1)
[18] = target: HIV-1 Env of NIH-069_C1080.c03 (HIV-1)
[19] = target: HIV-1 Env of NIH-114_T257.31 (HIV-1)
[20] = target: HIV-1 Env of pseudovirus NIH-061_Q259ENVd2.17 (HIV-1)
[21] = target: HIV-1 Env of pseudovirus NAC_SF162 (HIV-1)
[22] = target: HIV-1 Env of NIH-035_Ce1176 A3 (HIV-1)
[23] = target: HIV-1 Env of NIH-039_Ce2060 G9 (HIV-1)
[24] = target: HIV-1 Env of pseudovirus NIH-049_CNE20 (HIV-1)
[25] = target: HIV-1 Env of NIH-038_Ce1172 H1 (HIV-1)
[26] = target: HIV-1 Env of pseudovirus NIH-022_ZM233M.PB6 (HIV-1)
[27] = target: HIV-1 Env of NIH-053_CNE52 (HIV-1)
[28] = target: HIV-1 Env of NAC_SF162 (HIV-1)
[29] = target: HIV-1 Env of NIH-032_HIV-16845.2.22 (HIV-1)
[30] = target: HIV-1 Env of pseudovirus NIH-058_Q23ENV17 (HIV-1)
[31] = target: HIV-1 Env of pseudovirus NIH-083_P0402 c2 11 (clade G) (HIV-1)
[32] = target: HIV-1 Env of NIH-007_CAAN5342.A2 (HIV-1)
[33] = target: HIV-1 Env of pseudovirus NAC_92BR020 (HIV-1)
[34] = target: HIV-1 Env of pseudovirus NIH-072_R3265.c06 (HIV-1)
[35] = target: HIV-1 Env of pseudovirus NIH-029_HIV-001428.2.42 (HIV-1)
[36] = target: HIV-1 Env of isolate NIH-084_X1254 c3 (HIV-1)
[37] = target: HIV-1 Env of pseudovirus NIH-053_CNE52 (HIV-1)
[38] = target: HIV-1 Env of NAC_93IN905 (HIV-1)
[39] = target: HIV-1 Env of NAC_JRFL (HIV-1)
[40] = target: HIV-1 Env of pseudovirus NIH-034_Ce0393 C3 (HIV-1)
[41] = target: HIV-1 Env of pseudovirus NIH-065_191955 A11 (HIV-1)
[42] = target: HIV-1 Env of NAC_MN (HIV-1) (UniProt P05877)
[43] = target: HIV-1 Env of pseudovirus NHI-028_CAP210.E8 (HIV-1)
[44] = target: HIV-1 Env of pseudovirus NIH-041_BF1266.431a (HIV-1)
[45] = target: HIV-1 Env of NIH-115_928.28 (HIV-1)
[46] = target: HIV-1 Env of pseudovirus NIH-089_3016.v5.c45 (clade D) (HIV-1)

Sequence of HIV-1 Env of NAC_MN (HIV-1) (P05877 32-856 limits assumed): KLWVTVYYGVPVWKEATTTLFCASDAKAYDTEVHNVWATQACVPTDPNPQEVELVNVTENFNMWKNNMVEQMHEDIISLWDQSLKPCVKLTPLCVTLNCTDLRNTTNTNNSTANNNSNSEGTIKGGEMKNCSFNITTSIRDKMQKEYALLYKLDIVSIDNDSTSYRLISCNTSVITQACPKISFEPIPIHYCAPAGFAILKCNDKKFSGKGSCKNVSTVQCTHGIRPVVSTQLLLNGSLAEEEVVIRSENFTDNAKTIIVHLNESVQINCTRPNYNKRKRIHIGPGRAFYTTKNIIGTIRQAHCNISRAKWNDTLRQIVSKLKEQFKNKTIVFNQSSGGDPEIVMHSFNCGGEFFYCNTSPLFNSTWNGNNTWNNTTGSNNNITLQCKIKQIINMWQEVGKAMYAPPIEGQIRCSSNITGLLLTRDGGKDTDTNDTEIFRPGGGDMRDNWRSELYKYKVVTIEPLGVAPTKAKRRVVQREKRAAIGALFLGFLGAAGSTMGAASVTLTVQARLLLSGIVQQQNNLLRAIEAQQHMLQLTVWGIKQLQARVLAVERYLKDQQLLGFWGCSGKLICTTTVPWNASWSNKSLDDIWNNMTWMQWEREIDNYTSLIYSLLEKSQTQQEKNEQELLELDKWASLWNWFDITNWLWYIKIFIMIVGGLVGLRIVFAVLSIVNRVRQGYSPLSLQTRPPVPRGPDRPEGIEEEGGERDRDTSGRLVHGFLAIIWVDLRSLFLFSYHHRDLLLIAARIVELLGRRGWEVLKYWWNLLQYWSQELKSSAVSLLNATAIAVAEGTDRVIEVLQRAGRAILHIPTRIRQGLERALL

4E10 (antibody) showed an IC80 neutralization [1] of 22.7 µg/mL, an IC80 neutralization [2] of 6.57 µg/mL and a neutralization IC50 [3] of 4.17 µg/mL. It also gave an IC80 neutralization [4] of 1.43 µg/mL, an IC80 neutralization [5] of 3.97 µg/mL and a neutralization IC50 [6] of 10.4 µg/mL. For the same substance, the IC80 (µg/ml), TZM-bl pseudovirus neutralization [7] was 3.73 µg/mL, the neutralization IC50 [8] was 2.06 µg/mL and the IC80 (µg/ml), TZM-bl pseudovirus neutralization [9] was 10.4 µg/mL. For the same substance, the neutralization IC50 [10] was 0.102 µg/mL, the IC80 neutralization [11] was 5.37 µg/mL and the IC80 neutralization [12] was 3.17 µg/mL. The IC80 neutralization [13] was 5.77 µg/mL, the neutralization IC50 [14] was 20.3 µg/mL and the neutralization IC50 [15] was 6.19 µg/mL. It also gave an IC80 neutralization [16] of 25 µg/mL, an IC80 neutralization [17] of 8.25 µg/mL and an IC80 neutralization [18] of 1.36 µg/mL. For the same substance, the IC80 neutralization [19] was 4.71 µg/mL, the neutralization IC50 [20] was 7.12 µg/mL and the neutralization IC50 [21] was 1.97 µg/mL. The IC80 neutralization [22] was 7.36 µg/mL, the IC80 neutralization [23] was 5.1 µg/mL and the neutralization IC50 [24] was 0.383 µg/mL. For the same substance, the IC80 neutralization [25] was 4.56 µg/mL, the neutralization IC50 [26] was 1.05 µg/mL and the IC80 neutralization [27] was 3.85 µg/mL. It also gave an IC80 neutralization [28] of 8.26 µg/mL, an IC80 neutralization [29] of 0.653 µg/mL and a neutralization IC50 [30] of 1.29 µg/mL. It also gave an IC50 (µg/ml), TZM-bl cell neutralization assay, pseudovirus [31] of 0.084 µg/mL, an IC80 neutralization [32] of 12.1 µg/mL and a neutralization IC50 [33] of 2.57 µg/mL. The neutralization IC50 [34] was 0.491 µg/mL, the neutralization IC50 [35] was 5.54 µg/mL and the IC80 (µg/ml), TZM-bl pseudovirus neutralization [36] was 11.8 µg/mL. The neutralization IC50 [37] was 0.954 µg/mL, the IC80 neutralization [38] was 0.472 µg/mL and the IC80 neutralization [39] was greater than 50 µg/mL. It also gave a neutralization IC50 [40] of 0.606 µg/mL, a neutralization IC50 [41] of 0.011 µg/mL and an IC80 neutralization [42] of 0.135 µg/mL. For the same substance, the neutralization IC50 [43] was 0.847 µg/mL, the neutralization IC50 [44] was 2.47 µg/mL and the IC80 neutralization [45] was 0.438 µg/mL. The IC50 (µg/ml), TZM-bl cell neutralization assay, pseudovirus [46] was 0.915 µg/mL.

PGZL1 (antibody) showed an IC80 neutralization [1] greater than 50 µg/mL, an IC80 neutralization [2] greater than 50 µg/mL and a neutralization IC50 [3] of 40.5 µg/mL. For the same substance, the IC80 neutralization [4] was 12.1 µg/mL, the IC80 neutralization [5] was greater than 50 µg/mL and the neutralization IC50 [6] was greater than 50 µg/mL. For the same substance, the IC80 (µg/ml), TZM-bl pseudovirus neutralization [7] was 10.6 µg/mL, the neutralization IC50 [8] was 13.3 µg/mL and the IC80 (µg/ml), TZM-bl pseudovirus neutralization [9] was greater than 50 µg/mL. The neutralization IC50 [10] was 0.424 µg/mL, the IC80 neutralization [11] was greater than 50 µg/mL and the IC80 neutralization [12] was 29.7 µg/mL. For the same substance, the IC80 neutralization [13] was greater than 50 µg/mL, the neutralization IC50 [14] was greater than 50 µg/mL and the neutralization IC50 [15] was 42 µg/mL. For the same substance, the IC80 neutralization [16] was greater than 50 µg/mL, the IC80 neutralization [17] was greater than 50 µg/mL and the IC80 neutralization [18] was 6.93 µg/mL. It also gave an IC80 neutralization [19] greater than 50 µg/mL, a neutralization IC50 [20] greater than 50 µg/mL and a neutralization IC50 [21] of 12.8 µg/mL. For the same substance, the IC80 neutralization [22] was greater than 50 µg/mL, the IC80 neutralization [23] was greater than 50 µg/mL and the neutralization IC50 [24] was 2.42 µg/mL. For the same substance, the IC80 neutralization [25] was 6.6 µg/mL, the neutralization IC50 [26] was 5.9 µg/mL and the IC80 neutralization [27] was greater than 50 µg/mL. The IC80 neutralization [28] was 48.6 µg/mL, the IC80 neutralization [29] was 2.47 µg/mL and the neutralization IC50 [30] was 16.5 µg/mL. For the same substance, the IC50 (µg/ml), TZM-bl cell neutralization assay, pseudovirus [31] was 8.29 µg/mL, the IC80 neutralization [32] was greater than 50 µg/mL and the neutralization IC50 [33] was greater than 50 µg/mL. The neutralization IC50 [34] was 28 µg/mL, the neutralization IC50 [35] was greater than 50 µg/mL and the IC80 (µg/ml), TZM-bl pseudovirus neutralization [36] was greater than 50 µg/mL. For the same substance, the neutralization IC50 [37] was 24.3 µg/mL, the IC80 neutralization [38] was 2.2 µg/mL and the IC80 neutralization [39] was greater than 50 µg/mL. For the same substance, the neutralization IC50 [40] was 13.5 µg/mL, the neutralization IC50 [41] was 1.89 µg/mL and the IC80 neutralization [42] was 0.564 µg/mL. It also gave a neutralization IC50 [43] of 16.7 µg/mL, a neutralization IC50 [44] of 48.8 µg/mL and an IC80 neutralization [45] of 5.45 µg/mL. For the same substance, the IC50 (µg/ml), TZM-bl cell neutralization assay, pseudovirus [46] was 2.4 µg/mL.

Work on VRC01 (antibody) yielded an IC80 neutralization [1] of 0.571 µg/mL, an IC80 neutralization [2] of 0.092 µg/mL and a neutralization IC50 [3] of 0.593 µg/mL. The IC80 neutralization [4] was 0.512 µg/mL, the IC80 neutralization [5] was 8.63 µg/mL and the neutralization IC50 [6] was 0.917 µg/mL. For the same substance, the IC80 (µg/ml), TZM-bl pseudovirus neutralization [7] was 0.223 µg/mL, the neutralization IC50 [8] was 0.081 µg/mL and the IC80 (µg/ml), TZM-bl pseudovirus neutralization [9] was 1.35 µg/mL. The neutralization IC50 [10] was greater than 50 µg/mL, the IC80 neutralization [11] was 0.148 µg/mL and the IC80 neutralization [12] was 0.296 µg/mL. For the same substance, the IC80 neutralization [13] was 0.197 µg/mL, the neutralization IC50 [14] was 0.112 µg/mL and the neutralization IC50 [15] was 1.96 µg/mL. For the same substance, the IC80 neutralization [16] was 7.93 µg/mL, the IC80 neutralization [17] was 0.318 µg/mL and the IC80 neutralization [18] was 5.7 µg/mL. It also gave an IC80 neutralization [19] of 6.57 µg/mL, a neutralization IC50 [20] of 0.114 µg/mL and a neutralization IC50 [21] of 0.262 µg/mL. The IC80 neutralization [22] was 4.99 µg/mL, the IC80 neutralization [23] was 0.45 µg/mL and the neutralization IC50 [24] was 4.85 µg/mL. It also gave an IC80 neutralization [25] greater than 50 µg/mL, a neutralization IC50 [26] of 1.41 µg/mL and an IC80 neutralization [27] of 0.565 µg/mL. It also gave an IC80 neutralization [28] of 1.03 µg/mL, an IC80 neutralization [29] of 4.25 µg/mL and a neutralization IC50 [30] of 0.038 µg/mL. For the same substance, the IC50 (µg/ml), TZM-bl cell neutralization assay, pseudovirus [31] was 0.04 µg/mL, the IC80 neutralization [32] was 2.79 µg/mL and the neutralization IC50 [33] was 0.059 µg/mL. It also gave a neutralization IC50 [34] of 0.126 µg/mL, a neutralization IC50 [35] of 0.019 µg/mL and an IC80 (µg/ml), TZM-bl pseudovirus neutralization [36] of 0.149 µg/mL. The neutralization IC50 [37] was 0.142 µg/mL, the IC80 neutralization [38] was 0.28 µg/mL and the IC80 neutralization [39] was 0.741 µg/mL. For the same substance, the neutralization IC50 [40] was 0.37 µg/mL, the neutralization IC50 [41] was 0.091 µg/mL and the IC80 neutralization [42] was 0.196 µg/mL. It also gave a neutralization IC50 [43] greater than 50 µg/mL, a neutralization IC50 [44] of 0.028 µg/mL and an IC80 neutralization [45] of 0.99 µg/mL. The IC50 (µg/ml), TZM-bl cell neutralization assay, pseudovirus [46] was 0.058 µg/mL.
